US20070037211A1 (COUNCIL OF SCIENTIFIC AND INDUSTRIAL RESEARCH CSIR, published 2007)
No end group written: not given here.

Molecular target: T1, Hsp16.3, 16 kDa alpha-crystallin like heat shock protein of Mycobacterium tuberculosis, recombinant … (Mycobacterium tuberculosis, UniProt P9WMK1 1-144)
T1 construct: also called M. tuberculosis Acr; not shown: pQE-8 vector-derived residues flanking the 6xHis tag
T1 sequence: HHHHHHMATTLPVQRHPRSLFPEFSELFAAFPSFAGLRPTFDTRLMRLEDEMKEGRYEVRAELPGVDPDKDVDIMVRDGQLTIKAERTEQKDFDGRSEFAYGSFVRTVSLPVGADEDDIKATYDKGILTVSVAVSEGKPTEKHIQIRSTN
Assay: reverse phage ELISA on coated Hsp16.3, anti-M13-HRP, A405

B1: M13 phage clone displaying peptide Seq ID 21 (Tyr-Pro-His-His-Phe-Lys-His-Arg-His-Ile-Pro-Ile), from Ph.D.-12 library (peptide)
peptide: YPHHFKHRHIPI
modifications: also: displayed on M13 phage, fused to coat protein
notes: Tested as whole phage particles in reverse phage ELISA; not shown: M13 coat protein to which the peptide is fused, and the spacer to it
With B1 the “fold binding over non-specific control BSA” value was ~3 fold.
